# Experimental data taken from US20090118178A1 (7TM PHARMA A S, published 2009).
# Where no end group is shown, it is not given here.
# T1: human Y1 receptor (human, UniProt P25929 1-384)
# T1 sequence (looked up): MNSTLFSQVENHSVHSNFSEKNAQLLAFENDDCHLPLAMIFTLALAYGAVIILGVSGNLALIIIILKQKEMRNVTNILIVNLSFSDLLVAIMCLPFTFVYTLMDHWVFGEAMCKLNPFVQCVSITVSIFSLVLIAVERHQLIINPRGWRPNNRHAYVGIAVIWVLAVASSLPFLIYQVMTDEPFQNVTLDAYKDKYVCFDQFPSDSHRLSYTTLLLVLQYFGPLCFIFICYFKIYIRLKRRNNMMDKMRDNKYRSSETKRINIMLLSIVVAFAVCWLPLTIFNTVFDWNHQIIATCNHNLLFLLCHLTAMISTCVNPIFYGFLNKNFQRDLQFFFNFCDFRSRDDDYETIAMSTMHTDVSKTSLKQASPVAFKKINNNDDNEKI
# T2: human Y2 receptor (human, UniProt P49146 1-381)
# T2 sequence (looked up): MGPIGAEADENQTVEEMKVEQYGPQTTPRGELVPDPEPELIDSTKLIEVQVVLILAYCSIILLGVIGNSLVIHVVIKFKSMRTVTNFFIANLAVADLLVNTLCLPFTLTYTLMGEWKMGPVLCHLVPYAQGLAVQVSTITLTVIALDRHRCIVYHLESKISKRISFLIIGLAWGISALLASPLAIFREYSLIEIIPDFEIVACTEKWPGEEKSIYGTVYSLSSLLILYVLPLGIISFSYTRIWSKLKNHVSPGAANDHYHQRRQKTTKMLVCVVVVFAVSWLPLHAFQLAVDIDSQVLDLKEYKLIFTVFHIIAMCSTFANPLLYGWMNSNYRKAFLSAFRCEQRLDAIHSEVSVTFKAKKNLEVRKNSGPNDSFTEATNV
# Assays:
# Assay in all cases: cell-based or functional assay
# [1] = target: human Y4 receptor (human, UniProt P50391 1-375)
# human Y4 receptor, sequence (P50391 whole entry): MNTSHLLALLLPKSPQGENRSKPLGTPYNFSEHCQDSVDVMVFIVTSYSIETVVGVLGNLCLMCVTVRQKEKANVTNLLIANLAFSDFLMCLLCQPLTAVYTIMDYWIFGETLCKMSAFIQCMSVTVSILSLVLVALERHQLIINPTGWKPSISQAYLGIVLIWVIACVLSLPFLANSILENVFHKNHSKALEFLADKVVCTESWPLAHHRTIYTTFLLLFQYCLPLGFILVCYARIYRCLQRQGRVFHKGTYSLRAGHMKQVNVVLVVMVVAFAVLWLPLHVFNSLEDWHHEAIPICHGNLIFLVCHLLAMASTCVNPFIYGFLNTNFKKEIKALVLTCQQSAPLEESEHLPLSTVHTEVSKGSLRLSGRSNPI
# [2] = target: T1, human Y1 receptor
# [3] = target: T2, human Y2 receptor
Binder,"EC50, inositol phosphate turnover in transfected COS-7 cells (hY4 potency assay) [1] [nM]","EC50, inositol phosphate turnover in transfected COS-7 cells (hY1 potency assay) [2] [nM]","EC50, inositol phosphate turnover in transfected COS-7 cells (hY2 potency assay) [3] [nM]"
PLEPVYPGENATPEQMAQYAADLRRYINMLTRPRY-NH2 [[Glu10]PP2-36],0.91,564,> 1000
PLEPVYPGDNATPEQMAQYAADLRRYINQLTRPRY-NH2 [[Gln30]PP2-36],0.99,> 1000,> 1000
PLEPVYPGDNATPEQMAQYAADLRRYINALTRPRY-NH2 [[Ala30]PP2-36],1.04,> 1000,> 1000
PLEPVYPGDNATPEQMAQYAADLRRYINTLTRPRY-NH2 [[Thr30]PP2-36],1.07,> 1000,> 1000
"PLEPVYPGENATPEQLAQYAADLRRYINTLTRPRY-NH2 [[Glu10, Leu17, Thr30]PP2-36]",1.07,> 1000,> 1000
PLEPVYPGDNATPEQMAQYAADLRRYINNLTRPRY-NH2 [[Asn30]PP2-36],3.05,> 1000,> 1000
